Literature values, collected in publication PMC2695410.

Target: Calmodulin (Bos taurus) (UniProt P62157)

Kd: 0.48 µM
Substance: Aquaporin 0 C-terminal peptide C-terminus (from UniProt P30301)
